Results reported in article PMC9922282, “Small molecule inhibitors of 15-PGDH exploit a physiologic induced-fit closing system” (Nature Communications, 2023).

T1: 15-PGDH (Homo sapiens, UniProt P15428)
T1 construct: gene HPGD; recombinant human 15-PGDH with C-terminal TEV-cleavable 6xHis tag, homodimer
T1 sequence (P15428 1-256): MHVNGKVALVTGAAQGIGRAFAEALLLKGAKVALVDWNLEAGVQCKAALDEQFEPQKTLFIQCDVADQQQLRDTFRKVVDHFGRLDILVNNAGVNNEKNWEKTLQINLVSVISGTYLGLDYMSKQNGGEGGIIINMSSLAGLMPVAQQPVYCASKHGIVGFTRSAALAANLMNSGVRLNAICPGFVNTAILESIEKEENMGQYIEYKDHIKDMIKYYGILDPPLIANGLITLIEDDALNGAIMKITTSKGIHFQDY


Columns and labels:
[1] = biological target: T1, 15-PGDH; experiment: cryo-EM structure of the 15-PGDH-NADH complex ([…] Å); thermal shift; type: binding
[2] = substrate: CCCCC[C@H](O)/C=C/[C@H]1[C@H](O)CC(=O)[C@@H]1C/C=C\CCCC(=O)O; experiment: Michaelis-Menten kinetics of PGE2 oxidation (Km); type: biochemical, Homo sapiens; conditions: NAD+ active site

Row | Molecule | cryo-EM structure of the 15-PGDH-NADH complex (3.3 Å); thermal shift [1] | Km [2] [µM]
1 | NC(=O)C1=CN([C@@H]2O[C@H](COP(=O)(O)OP(=O)(O)OC[C@H]3O[C@@H](n4cnc5c(N)ncnc54)[C@H](O)[C@@H]3O)[C@@H](O)[C@H]2O)C=CC1 [NADH] | we employed cryo-EM to solve the structure of the 15-PGDH-NADH complex in the absence of inhibitor | –
2 | 15-PGDH (Homo sapiens) (protein, recombinant human 15-PGDH with C-terminal TEV-cleavable 6xHis tag) MHVNGKVALVTGAAQGIGRAFAEALLLKGAKVALVDWNLEAGVQCKAALDEQFEPQKTLFIQCDVADQQQLRDTFRKVVDHFGRLDILVNNAGVNNEKNWEKTLQINLVSVISGTYLGLDYMSKQNGGEGGIIINMSSLAGLMPVAQQPVYCASKHGIVGFTRSAALAANLMNSGVRLNAICPGFVNTAILESIEKEENMGQYIEYKDHIKDMIKYYGILDPPLIANGLITLIEDDALNGAIMKITTSKGIHFQDYDTTPFQAKTQ | – | 2.2
3 | 15-PGDH (Homo sapiens; Y217A) (protein, recombinant human 15-PGDH with C-terminal TEV-cleavable 6xHis tag) MHVNGKVALVTGAAQGIGRAFAEALLLKGAKVALVDWNLEAGVQCKAALDEQFEPQKTLFIQCDVADQQQLRDTFRKVVDHFGRLDILVNNAGVNNEKNWEKTLQINLVSVISGTYLGLDYMSKQNGGEGGIIINMSSLAGLMPVAQQPVYCASKHGIVGFTRSAALAANLMNSGVRLNAICPGFVNTAILESIEKEENMGQYIEYKDHIKDMIKYAGILDPPLIANGLITLIEDDALNGAIMKITTSKGIHFQDYDTTPFQAKTQ | – | 11
